The values below are quoted from earlier work in paper PMC5650668.

A word on the Kd: it is a measure of binding affinity in units of concentration.

Where two headings read alike, the source gives them in different places.

Data set [1] addresses ω-agatoxin IVA (Agelenopsis aperta) (UniProt P30288).
Data set [2] has the same target. The source holds these as a separate data set.

Sequence of UniProt P30288 (P30288 whole entry): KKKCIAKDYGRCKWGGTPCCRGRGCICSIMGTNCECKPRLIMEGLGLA

Turning to “Cav2.1 (Q current component) (from UniProt P54282)”, in data set [1], the Kd is greater than 100 nM.

“Cav2.1 (P current component) (from UniProt P54282)”: the Kd in data set [2] is 2 nM.
